The test system of one assay is 5XG-35S:GUS. Put plainly: MOF induced GUS activity in Arabidopsis plants with VGE, AGE or A5A5GE. The format is in vivo, Arabidopsis thaliana. As to conditions: for activation of GUS expression, T2 generation plants: induced with MOF, plant lines #11, #11, #18; for activation of GUS expression, T1 generation plants: soil drench 1:10,000 dilution of MOF (61.3 μM) for 60 hours. As for the experimental part: In this Example, Arabidopsis thaliana Col-0 plants were transformed with A. tumefaciens bacterium (strain GV3101) containing effector constructs comprising the CsVMV promoter operably linked to a nucleic acid sequence (SEQ ID NO:104) encoding the GE protein, plus (i) a nucleic acid sequence encoding the VP16 acidic activation domain of the herpes simplex virus, (ii) a sequence (SEQ ID NO:9) encoding the full RF2a acidic domain, or (iii) a sequence (2×SEQ ID NO:102) encoding a dimer of the A5 minimal acidic domain of RF2a (“A5A5”). The foregoing VP16 acidic domain-, RF2a acidic domain-, and A5A5 domain-encoding sequences were oriented to express such domains at the N-terminal of the GE protein. FIG. 28 refers to these constructs as VGE, AGE, and A5A5GE, respectively.
The foregoing effector constructs were prepared using standard DNA cloning and PCR procedures, and plasmids containing nucleic acid sequences encoding the VP16 acidic domain, the full length RF2a acidic domain (SEQ ID NO:6), the A5A5 domain (2×SEQ ID NO:101), and the GE domain (SEQ ID NO:103). Those of ordinary skill in the art will appreciate, however, that such effector sequences (and derivatives thereof) may also be constructed synthetically using standard procedures. The reporter construct described in Example 17 above, 5XG-35S:GUS, was used in this Example.
Next, plasmids containing the effector and reporter constructs described above were transferred by electroporation into A. tumefaciens strain GV3101. Agrobacterium isolates that contained the respective plasmids were used to transform A. thaliana Col-0 using a standard floral dip method (Clough and Bent, 1998). Seeds from the T1 generation were collected and germinated in Murashige and Skoog medium (Murashige and Skoog, 1962) containing a selective component (hygromycin B (30 μg/mL).
The seedlings that survived the selection were grown in soil in a growth chamber and allowed to self-fertilize. Next, T2 generation seeds were collected and germinated in Murashige and Skoog medium, which contained hygromycin B (30 μg/mL). The seedlings that survived the selection in a 3:1 segregation pattern were grown in soil in a growth chamber (under 12 hours of light/12 hours of dark per day, at 22° C., 50% humidity).
Analysis of T1 Generation Plants—In this Example, 22 T1 plants were analyzed for methoxyfenozide (MOF) induced gene expression. […] The supernatants were analyzed for GUS enzymatic activity as described in Example 16 above.
Analysis of T2 Generation Plants—A total of 16 different plants from a T2 generation plant line (having a segregation of the reporter/effector constructs of 3:1), wherein each plant contained a VGE, AGE, or A5A5GE effector construct, were induced with MOF and analyzed for GUS activity (as described above). […]

The subject of assay [1] is E fragment of the RTBV promoter. Put plainly: Co-transfection of E::GUS with RF2a and/or RF2b constructs in BY-2 protoplasts. It is filed as cell-based, tobacco. The text has this:
Nevertheless, the E fragment may be further stimulated by co-transfecting the BY-2 protoplasts with constructs that encode the RF2a and/or RF2b transcription factors. In this Example, the E fragment was activated in tobacco BY-2 protoplasts by co-transfection of E::GUS with CsVMV::RF2b, CaMV 35S::RF2a and CaMV 35S::RF2a/CsVMV::RF2b using methods well-known in the art.

Assay [2] concerns Box II, Box IIm1 and Box IIm2 elements. Put plainly: Surface Plasmon Resonance binding (BIAcore 2000). The note with it: 1:1 binding with a mass transfer model. The protocol:
To compare the binding affinities of RF2a and RF2b with the Box II element and its mutants, real time Surface Plasmon Resonance (“SPR”) measurements were conducted using a BIAcore 2000 instrument. The binding affinities of RF2a and RF2b to these DNA targets were measured on chips on which biotin labeled-Box II, -Box IIm1 and -Box IIm2 elements were immobilized.
The association and de-association constants were determined using BIAevaluation 3.1 software—using 1:1 binding with a mass transfer model. […] Furthermore, the DNA binding behavior of RF2a and RF2b are quite different from each other. […] The differences in the affinity of RF2a to the Box II element and its mutants, however, are not as dramatic as the differences of RF2b, while the relative order of affinities to the different target elements is the same for both proteins (FIG. 8).
(SPR reads the build-up and loss of mass on a sensor chip optically.)

For the next assay, the system named is E(Box IIm1) promoter. The assay can be described thus: BY-2 protoplast transient assay, reporter pE(Box IIm1)::GUS with RF2a/RF2b effectors. The format is cell-based, tobacco. As to conditions: co-transfection, BY-2 protoplasts. The text has this:
(§1) To illustrate the biological relevance of the differences in the binding affinities described above, the pE::GUS, pE(Box IIm1)::GUS and pE(Box IIm2)::GUS constructs were used as reporters in BY-2 protoplast transient assays. In these assays, CaMV 35S::RF2a, CsVMV::RF2b and CaMV 35S::RF2a/CsVMV::RF2b were used as effectors. All results were normalized against the GFP internal control. The relative GUS activities of different sets of transfection assays are shown in FIG. 9 for the Box IIm1 element, and FIG. 10 for the Box IIm2 element.

A further assay has as its system E(Box IIm2) promoter. Put plainly: BY-2 protoplast transient assay, reporter pE(Box IIm2)::GUS with RF2a/RF2b effectors. The format is cell-based, tobacco. The note with it: co-transfection, BY-2 protoplasts, normalized against GFP.
From the text: as §1

B1: A5A5GE: (2 × SEQ ID NO: 101 (A5)) + SEQ ID NO: 103 (GE) (protein, listed as Oryza sp.)
chain: EILSLPEDLDLCAAGGGDGPSLSDENDEEEILSLPEDLDLCAAGGGDGPSLSDENDEEKLLSSIEQACDICRLKKLKCSKEKPKCAKCLKNNWECRYSPKTKRSPLTRAHLTEVESRLERLEQLFLLIFPREDLDMILKMDSLQDIKALLTGLFVQDNVNKDAVTDRLASVETDMPLTLRQHRISATSSSEESSNKGQRQLTVSGGSRRISWPECVVPETQCAMKRKEKKAQKEKDKLPVSTTTVDDHMPPIMQCEPPPPEAARIHEVVPRFLSDKLLETNRQKNIPQLTANQQFLIARLIWYQDGYEQPSDEDLKRITQTWQQADDENEESDTPFRQITEMTILTVQLIVEFAKGLPGFAKISQPDQITLLKAFSSEVMMLRVARRYDAASDSVLFANNQAYTRDNYRKAGMAYVIEDLLHFCRCMYSMALDNIHYALLTAVVIFSDRPGLEQPQLVEEIQRYYLNTLRIYILNQLSGSARSSVIYGKILSILSELRTLGMQNSNMCISLKLKNRKLPPFLEEIWDVADMSHTQPPPILESPTNL
modifications: A combination of the Gal4 protein and Ecdysone receptor
Regarding B1, in the assay on 5XG-35S:GUS, the “activation of GUS expression, T2 generation plants” value is reported as “activated GUS expression (in the T2 generation plants) in the presence of the MOF inducer as strong as VP16” and the “activation of GUS expression, T1 generation plants” value was “activated GUS expression in the presence of the MOF inducer as strong as VP16”.

B2: AGE: SEQ ID NO: 6 (A) + SEQ ID NO: 103 (GE) (protein)
chain: MGHRRAHSEILSLPEDLDLCAAGGGDGPSLSDENDEELFSMFLDVEKLNSTCGASSEAEAESSSAAAKLLSSIEQACDICRLKKLKCSKEKPKCAKCLKNNWECRYSPKTKRSPLTRAHLTEVESRLERLEQLFLLIFPREDLDMILKMDSLQDIKALLTGLFVQDNVNKDAVTDRLASVETDMPLTLRQHRISATSSSEESSNKGQRQLTVSGGSRRISWPECVVPETQCAMKRKEKKAQKEKDKLPVSTTTVDDHMPPIMQCEPPPPEAARIHEVVPRFLSDKLLETNRQKNIPQLTANQQFLIARLIWYQDGYEQPSDEDLKRITQTWQQADDENEESDTPFRQITEMTILTVQLIVEFAKGLPGFAKISQPDQITLLKAFSSEVMMLRVARRYDAASDSVLFANNQAYTRDNYRKAGMAYVIEDLLHFCRCMYSMALDNIHYALLTAVVIFSDRPGLEQPQLVEEIQRYYLNTLRIYILNQLSGSARSSVIYGKILSILSELRTLGMQNSNMCISLKLKNRKLPPFLEEIWDVADMSHTQPPPILESPTNL
modifications: This sequence was artificially derived and/or created by the inventors.; A combination of the Gal4 protein and Ecdysone receptor
For B2, in the assay on 5XG-35S:GUS, the “activation of GUS expression, T2 generation plants” value was “activated GUS expression (in the T2 generation plants) in the presence of the MOF inducer as strong as VP16” and the “activation of GUS expression, T1 generation plants” value is recorded as “activated GUS expression in the presence of the MOF inducer as strong as VP16”.

B3: RF2b: bZIP transcription factor isolated through interaction with RF2a, SEQ ID NO:5 (protein)
chain: MQEPKHTDPAAMRGAHHRRARSEVAFRLPDDLDLGGGGAGAFDEIGSEDDLFSTFMDIEKISSGPAAAGGSDRDRAAETSSPPRPKHRHSSSVDGSGFFAAARKDAAASLAEVMEAKKAMTPEQLSDLAAIDPKRAKRILANRQSAARSKERKARYITELERKVQTLQTEATTLSAQLTLFQRDTTGLSAENAELKIRLQAMEQQAQLRDALNDALKQELERLKLATGEMTNSNETYSMGLQHVPYNTPFFPLAQHNAARQNGGTQLPPQFQPPRPNVPNHMLSHPNGLQDIMQQDPLGRLQGLDISKGPLVVKSESSSISASESSSTF
modifications: This sequence was artificially derived and/or created by the inventors.
For the molecule B3, the “activation of the E fragment by over-expression” value in assay [1] is reported as “activated above a strong background expression”. Also, the “DNA binding behavior (association and dissociation)” value in assay [2] was “binds slowly to the DNA target and releases from the target relatively quickly”. In addition, the “activity of the E(Box IIm1) promoter compared with the E wild type promoter” value with E(Box IIm1) promoter is “as high as the expression of the E wild type promoter in BY-2 protoplasts”. For the same molecule, the “increase of promoter activity of E(Box IIm1)” value with E(Box IIm1) promoter (normalized against GFP) is recorded as “about 7 fold”. Also, in the assay on E(Box IIm2) promoter, the “increase of promoter activity of E(Box IIm2)” value is “about 5.8 fold”.
